Laboratory results published in patent publication US20030077661A1 (ST JUDE CHILDREN S RESEARCH HOSPITAL, published 2003).

T1: 6×-Histidine (6×-His) fusion protein containing the C-terminal kinase domain of ATM, residues 2712-3056 (Homo sapiens (Human), UniProt Q13315 2712-3056)
T1 construct: also called ATM kinase domain; not shown: 6×-His tag from pET28
T1 sequence: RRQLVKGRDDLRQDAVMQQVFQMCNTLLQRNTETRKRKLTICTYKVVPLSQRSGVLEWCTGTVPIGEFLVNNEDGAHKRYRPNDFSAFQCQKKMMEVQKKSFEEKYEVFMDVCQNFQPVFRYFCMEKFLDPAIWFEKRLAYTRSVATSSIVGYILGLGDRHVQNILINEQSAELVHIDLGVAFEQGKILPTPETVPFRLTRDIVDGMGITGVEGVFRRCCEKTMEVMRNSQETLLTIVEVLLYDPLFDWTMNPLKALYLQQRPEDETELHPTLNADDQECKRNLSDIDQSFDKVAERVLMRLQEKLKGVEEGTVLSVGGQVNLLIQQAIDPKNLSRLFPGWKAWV


Key:
[1] = target: T1, 6×-Histidine (6×-His) fusion protein …; assay: co-expression in E. coli; kinase domain remained insoluble
Source text: A further aspect of the invention provides a method of producing soluble ATM kinase by contacting the kinase domain of ATM with a fragment of ATM kinase containing Ser¹⁹⁸¹. […] Although the kinase domain was insoluble in bacteria when co-transfected with GST alone or a GST fusion with the ATM target peptide p53 (residues 1-101), a significant percentage was stabilized and solubilized in the presence of the GST-ATM¹⁹⁶¹⁻²⁰⁴⁶ fusion protein. The kinase domain was also solubilized in the presence of the GST-ATM¹⁹⁶¹⁻²⁰⁴⁶ fusion protein containing Ser¹⁹⁸¹→Ala, but remained insoluble in the presence of phosphorylation-mimic fusion peptides, Ser¹⁹⁸¹→Asp and Ser¹⁹⁸¹→Glu. Furthermore, the soluble kinase domain co-purified on glutathione-agarose with the GST-ATM¹⁹⁶¹⁻²⁰⁴⁶ fusion proteins containing wild-type sequence or Ser¹⁹⁸¹→Ala.

[2] = target: the molecule itself; assay: SDS-PAGE of the purified fragment (self-association)
Method: As the ATM kinase domain interacts stably with the domain containing the autophosphorylation site, it was determined whether a truncated recombinant ATM molecule that included the phosphorylation and kinase domains would fold properly and have kinase activity. A galactose-inducible pYES plasmid containing 6×-His-FLAG®-tagged ATM¹⁹²³⁻³⁰⁵⁶ was transfected into Saccharomyces cerevisiae and a soluble ATM fragment was recovered. The polypeptide was purified by anti-FLAG® affinity chromatography.

Row | binding result [1] | Binder | binding result [2]
1 | no binding | GST-ATM^1961-2046 phosphorylation-mimic fusion peptide Ser^1981→Asp (other, not shown: glutathione-S-transferase (GST) as encoded by pGEX-4T-1) YADKKSMDDQEKRSLAFEEGDQSTTISSLSEKSKEETGISLQDLLLEIYRSIGEPDSLYGCGGGKMLQPITRLRTYEHEAMWGKAL | –
2 | no binding | GST-ATM^1961-2046 phosphorylation-mimic fusion peptide Ser^1981→Glu (other, not shown: glutathione-S-transferase (GST) as encoded by pGEX-4T-1) YADKKSMDDQEKRSLAFEEGEQSTTISSLSEKSKEETGISLQDLLLEIYRSIGEPDSLYGCGGGKMLQPITRLRTYEHEAMWGKAL | –
3 | – | 6×-His-FLAG®-tagged ATM^1923-3056 (enzyme, Expressed in S. cerevisiae from pYES2; also called soluble ATM fragment; truncated recombinant ATM; not shown: N-terminal 6×-His and FLAG tags) SSGTIFNDAFWLDLNYLEVAKVAQSCAAHFTALLYAEIYADKKSMDDQEKRSLAFEEGSQSTTISSLSEKSKEETGISLQDLLLEIYRSIGEPDSLYGCGGGKMLQPITRLRTYEHEAMWGKALVTYDLETAIPSSTRQAGIIQALQNLGLCHILSVYLKGLDYENKDWCPELEELHYQAAWRNMQWDHCTSVSKEVEGTSYHESLYNALQSLRDREFSTFYESLKYARVKEVEEMCKRSLESVYSLYPTLSRLQAIGELESIGELFSRSVTHRQLSEVYIKWQKHSQLLKDSDFSFQEPIMALRTVILEILMEKEMDNSQRECIKDILTKHLVELSILARTFKNTQLPERAIFQIKQYNSVSCGVSEWQLEEAQVFWAKKEQSLALSILKQMIKKLDASCAANNPSLKLTYTECLRVCGNWLAETCLENPAVIMQTYLEKAVEVAGNYDGESSDELRNGKMKAFLSLARFSDTQYQRIENYMKSSEFENKQALLKRAKEEVGLLREHKIQTNRYTVKVQRELELDELALRALKEDRKRFLCKAVENYINCLLSGEEHDMWVFRLCSLWLENSGVSEVNGMMKRDGMKIPTYKFLPLMYQLAARMGTKMMGGLGFHEVLNNLISRISMDHPHHTLFIILALANANRDEFLTKPEVARRSRITKNVPKQSSQLDEDRTEAANRIICTIRSRRPQMVRSVEALCDAYIILANLDATQWKTQRKGINIPADQPITKLKNLEDVVVPTMEIKVDHTGEYGNLVTIQSFKAEFRLAGGVNLPKIIDCVGSDGKERRQLVKGRDDLRQDAVMQQVFQMCNTLLQRNTETRKRKLTICTYKVVPLSQRSGVLEWCTGTVPIGEFLVNNEDGAHKRYRPNDFSAFQCQKKMMEVQKKSFEEKYEVFMDVCQNFQPVFRYFCMEKFLDPAIWFEKRLAYTRSVATSSIVGYILGLGDRHVQNILINEQSAELVHIDLGVAFEQGKILPTPETVPFRLTRDIVDGMGITGVEGVFRRCCEKTMEVMRNSQETLLTIVEVLLYDPLFDWTMNPLKALYLQQRPEDETELHPTLNADDQECKRNLSDIDQSFDKVAERVLMRLQEKLKGVEEGTVLSVGGQVNLLIQQAIDPKNLSRLFPGWKAWV | binds
